# Test results as given in patent US20190338048A1.
# Like-named read-outs stand apart in the source and are kept apart here.
# Assays:
# [1] = biological target: CR8071 lambda light chain S122D_K129T_S176E_Y178E (L1 of design 3967, system C); experiment: SMCA: H1, L1, H2, L2 co-expressed, protein A, LC-MS
# [2] = biological target: CR8071 lambda light chain E124Q_T131R (L1 of design 3025, system C); experiment: SMCA LC-MS
# [3] = biological target: CR8071 lambda light chain K129T_S180E (L1 of design 3878, system C); experiment: SMCA LC-MS
# [4] = biological target: CR8071 lambda light chain V133D_Y178T (L1 of designs 3113 and 3122, system C); experiment: SMCA LC-MS
# [5] = biological target: CR8071 lambda light chain V133D_Y178T (L1 of designs 3113 and 3122, system C); experiment: SMCA LC-MS; remark: listed apart in the source
# [6] = biological target: Design 3890 L1: CR8071 lambda light chain S122D_K129T_S180E; experiment: SMCA: H1, L1, H2, L2 co-expressed, protein A, LC-MS
# [7] = biological target: Design 3890 L2: SGN-CD19a kappa light chain S121K_Q124R_T178R; experiment: as above
# [8] = biological target: Design 3898 L1: CR8071 lambda light chain K129T_Y178E_S180E; experiment: as above
# [9] = biological target: Design 3898 L2: SGN-CD19a kappa light chain Q124R_T178R; experiment: as above
# [10] = biological target: Design 3898 L2: SGN-CD19a kappa light chain Q124R_T178R; experiment: as above; remark: listed apart in the source
# [11] = biological target: Design 3931 L2: SGN-CD19a kappa light chain V133G_S176D; experiment: as above
# [12] = biological target: Design 3931 L2: SGN-CD19a kappa light chain V133G_S176D; experiment: as above; remark: listed apart in the source
# [13] = biological target: Design 3947 L1: CR8071 lambda light chain K129T_Y178D; experiment: as above
# [14] = biological target: Design 3951 L1: CR8071 lambda light chain S122D_K129T_S176E_Y178E; experiment: as above
# [15] = biological target: Design 3954 L1: CR8071 lambda light chain S122D_Y178K; experiment: as above
# [16] = biological target: Design 3957 L2: SGN-CD19a kappa light chain Q124E_V133D_T178E; experiment: as above
# [17] = biological target: Design 3957 L2: SGN-CD19a kappa light chain Q124E_V133D_T178E; experiment: as above; remark: listed apart in the source
# [18] = biological target: SGN-CD19a kappa light chain L2 with V133G_S176D_T178E; experiment: SMCA System B: four chains co-expressed, protein A, LC-MS
# [19] = biological target: SGN-CD19a kappa light chain L2 with V133G_S176D_T178E; experiment: SMCA System C: four chains co-expressed, protein A, LC-MS
# [20] = biological target: SGN-CD19a kappa light chain L2 with V133G_S176D_T180E; experiment: SMCA System B: four chains co-expressed, protein A, LC-MS
# [21] = biological target: SGN-CD19a kappa light chain L2 with V133G_S176D_T180E; experiment: SMCA System C: four chains co-expressed, protein A, LC-MS
# [22] = biological target: SGN-CD19a kappa light chain S176K_T178K (L2 of design 3122, systems B and C); experiment: SMCA LC-MS
# [23] = biological target: SGN-CD19a kappa light chain S176K_T178K (L2 of design 3122, systems B and C); experiment: SMCA LC-MS; remark: listed apart in the source
# [24] = biological target: SGN-CD19a kappa light chain S131R_V133G_S176R (L2 of designs 3102 and 3113, systems B and C); experiment: SMCA LC-MS
# [25] = biological target: SGN-CD19a kappa light chain S131R_V133G_S176R (L2 of designs 3102 and 3113, systems B and C); experiment: SMCA LC-MS; remark: listed apart in the source
# [26] = biological target: SGN-CD19a kappa light chain S131R_V133G_S176R (L2 of designs 3102 and 3113, systems B and C); experiment: SMCA LC-MS; remark: listed apart in the source
# [27] = biological target: SGN-CD19a kappa light chain S131R_V133G_S176R (L2 of designs 3102 and 3113, systems B and C); experiment: SMCA LC-MS; remark: listed apart in the source
# [28] = biological target: SGN-CD19a kappa light chain S121K_Q124R_T178R (L2 of design 3890, system B); experiment: SMCA LC-MS
# [29] = biological target: SGN-CD19a kappa light chain S121K_Q124R_T178R (L2 of design 3967, systems B and C); experiment: SMCA: H1, L1, H2, L2 co-expressed, protein A, LC-MS
# [30] = biological target: SGN-CD19a kappa light chain S121K_Q124R_T178R (L2 of design 3967, systems B and C); experiment: as above; remark: listed apart in the source
# [31] = biological target: SGN-CD19a kappa light chain Q124R_Q160K_T178R (L2 of design 3878, systems B and C); experiment: SMCA LC-MS
# [32] = biological target: SGN-CD19a kappa light chain Q124R_Q160K_T178R (L2 of design 3878, systems B and C); experiment: SMCA LC-MS; remark: listed apart in the source
# [33] = biological target: SGN-CD19a kappa light chain Q124E_V133D_L135W (L2 of design 3972, systems B and C); experiment: SMCA: H1, L1, H2, L2 co-expressed, protein A, LC-MS
# [34] = biological target: SGN-CD19a kappa light chain Q124E_V133D_T180D (L2 of design 3971, systems B and C); experiment: as above
# [35] = biological target: SGN-CD19a kappa light chain Q124E_V133D_L135W (L2 of design 3972, systems B and C); experiment: as above; remark: listed apart in the source
# [36] = biological target: SGN-CD19a kappa light chain Q124E_V133D_T180D (L2 of design 3971, systems B and C); experiment: as above; remark: listed apart in the source
# [37] = biological target: SGN-CD19a kappa light chain S131D_V133G_T178F (L2 of design 3025, systems B and C); experiment: SMCA LC-MS
# [38] = biological target: SGN-CD19a kappa light chain S131D_V133G_T178F (L2 of design 3025, systems B and C); experiment: SMCA LC-MS; remark: listed apart in the source
substance,measurement,setting,value
"CR8071 heavy chain A125R_S188K (H1 of design 3967, system C)",% H1L1 Pairing,[1],96.7%
same,Change in % H1L1 Pairing with respect to wild type,[1],28.6%
"CR8071 heavy chain L143D_K145T (H1 of design 3025, system C)",% H1L1 Pairing,[2],43.9%
same,Change in % H1L1 Pairing with respect to wild type,[2],-4.5%
"CR8071 heavy chain Q179K (H1 of design 3878, system C)",% H1L1 Pairing,[3],99.3%
same,Change in % H1L1 Pairing with respect to wild type,[3],17%
"CR8071 heavy chain S186K_S188T (H1 of designs 3113 and 3122, system C)",% H1L1 Pairing,[4],76.7%
same,Change in % H1L1 Pairing with respect to wild type,[4],-5.6%
same,% H1L1 Pairing,[5],65.8%
same,Change in % H1L1 Pairing with respect to wild type,[5],-16.5%
Design 3890 H1: CR8071 heavy chain A125R_Q179K,% H1L1 Pairing,[6],98.4%
same,Change in % H1L1 Pairing with respect to wild type,[6],30.3%
Design 3890 H2: SGN-CD19a heavy chain L143E_K145T_K228D,% H2L2 Pairing,[7],88.5%
same,Change in % H2L2 Pairing with respect to wild type,[7],17.2%
Design 3898 H1: CR8071 heavy chain Q179K,% H1L1 Pairing,[8],97.4%
same,Change in % H1L1 Pairing with respect to wild type,[8],15.1%
Design 3898 H2: SGN-CD19a heavy chain L143E_K145T_Q179E,% H2L2 Pairing,[9],74.5%
same,Change in % H2L2 Pairing with respect to wild type,[9],36.9%
same,% H2L2 Pairing,[10],95.2%
same,Change in % H2L2 Pairing with respect to wild type,[10],35.3%
Design 3931 H2: SGN-CD19a heavy chain L124R,% H2L2 Pairing,[11],83.6%
same,Change in % H2L2 Pairing with respect to wild type,[11],29.4%
same,% H2L2 Pairing,[12],99.5%
same,Change in % H2L2 Pairing with respect to wild type,[12],19.9%
Design 3947 H1: CR8071 heavy chain S188K,% H1L1 Pairing,[13],91.3%
same,Change in % H1L1 Pairing with respect to wild type,[13],23.2%
Design 3951 H1: CR8071 heavy chain A125R_S188K,% H1L1 Pairing,[14],97.5%
same,Change in % H1L1 Pairing with respect to wild type,[14],29.4%
Design 3954 H1: CR8071 heavy chain A125R_K145T_S188E,% H1L1 Pairing,[15],89%
same,Change in % H1L1 Pairing with respect to wild type,[15],40.6%
Design 3957 H2: SGN-CD19a heavy chain L143R_S188K,% H2L2 Pairing,[16],85.4%
same,Change in % H2L2 Pairing with respect to wild type,[16],31.2%
same,% H2L2 Pairing,[17],99.7%
same,Change in % H2L2 Pairing with respect to wild type,[17],20.1%
SGN-CD19a heavy chain H2 with L124R_S186K,% H2L2 Pairing,[18],98.8%
same,Change in % H2L2 Pairing with respect to wild type,[18],44.6%
same,% H2L2 Pairing,[19],99.6%
same,Change in % H2L2 Pairing with respect to wild type,[19],20%
SGN-CD19a heavy chain H2 with L124R_S186R,% H2L2 Pairing,[20],98.6%
same,Change in % H2L2 Pairing with respect to wild type,[20],44.4%
same,% H2L2 Pairing,[21],99.5%
same,Change in % H2L2 Pairing with respect to wild type,[21],28.2%
"SGN-CD19a heavy chain K145T_V177D_S188D (H2 of design 3122, systems B and C)",% H2L2 Pairing,[22],89.7%
same,Change in % H2L2 Pairing with respect to wild type,[22],52.1%
same,% H2L2 Pairing,[23],99.8%
same,Change in % H2L2 Pairing with respect to wild type,[23],39.9%
"SGN-CD19a heavy chain L124E_K145T_Q179E (H2 of designs 3102 and 3113, systems B and C)",% H2L2 Pairing,[24],92.8%
same,Change in % H2L2 Pairing with respect to wild type,[24],55.2%
same,% H2L2 Pairing,[25],99.8%
same,Change in % H2L2 Pairing with respect to wild type,[25],39.9%
same,% H2L2 Pairing,[26],90.9%
same,Change in % H2L2 Pairing with respect to wild type,[26],53.3%
same,% H2L2 Pairing,[27],99.6%
same,Change in % H2L2 Pairing with respect to wild type,[27],39.7%
"SGN-CD19a heavy chain L143E_K145T_K228D (H2 of design 3890, system B)",% H2L2 Pairing,[28],51.3%
same,Change in % H2L2 Pairing with respect to wild type,[28],-2.9%
"SGN-CD19a heavy chain L143E_K145T_Q179E_K228D (H2 of design 3967, systems B and C)",% H2L2 Pairing,[29],98.6%
same,Change in % H2L2 Pairing with respect to wild type,[29],44.4%
same,% H2L2 Pairing,[30],100%
same,Change in % H2L2 Pairing with respect to wild type,[30],28.7%
"SGN-CD19a heavy chain L143E_K145T_S188L (H2 of design 3878, systems B and C)",% H2L2 Pairing,[31],28.7%
same,Change in % H2L2 Pairing with respect to wild type,[31],-8.9%
same,% H2L2 Pairing,[32],67.4%
same,Change in % H2L2 Pairing with respect to wild type,[32],7.5%
"SGN-CD19a heavy chain L143R (H2 of designs 3971 and 3972, systems B and C)",% H2L2 Pairing,[33],99.7%
same,Change in % H2L2 Pairing with respect to wild type,[33],45.5%
same,% H2L2 Pairing,[34],99.3%
same,Change in % H2L2 Pairing with respect to wild type,[34],45.1%
same,% H2L2 Pairing,[35],99.8%
same,Change in % H2L2 Pairing with respect to wild type,[35],20.2%
same,% H2L2 Pairing,[36],99.8%
same,Change in % H2L2 Pairing with respect to wild type,[36],20.2%
"SGN-CD19a heavy chain S188K (H2 of design 3025, systems B and C)",% H2L2 Pairing,[37],87.9%
same,Change in % H2L2 Pairing with respect to wild type,[37],33.7%
same,% H2L2 Pairing,[38],99.7%
same,Change in % H2L2 Pairing with respect to wild type,[38],20.1%
